In one test the target is mouse cMET (recombinant) (mouse, UniProt P16056 25-929, limits assumed). Nature of the test: ELISA, antigen coated at 1 µg/mL, antibody titrated from 10 µg/mL. The procedure: Specificity for EGFR and cMET species paralogs and closely related family members was determined by ELISA. Briefly, antigen solutions were prepared in PBS at 1 μg/mL and 50 microliters was coated onto half area ELISA assay plates. Plates were washed and blocked with 1% BSA in PBS containing 0.005% Tween-20 (PBS-T) for one hour at room temperature. […] Wells were incubated with 50 microliters of the indicated primary antibodies diluted in PBS-T in a 1:3 dilution series, starting at 10 μg/mL and ending at 0.002 μg/mL, except for the HER4 binding mAb control, MAB1131, for which the series started at 1 μg/mL. The wells were washed 4 times in PBS-T, then 50 μl of goat anti-human Fab HRP-labeled secondary antibody, diluted 1:5000 in PBS-T, was added to each well and incubated for one hour at room temperature. […] 50 microliters of TMB stop solution was added to all wells and the absorbance was read at 450 nm on a SpectraMax M5 microplate reader. Data were analyzed in the SoftMax Pro 5 software and plotted using GraphPad Prism 7 graphing software.
To determine the species cross reactivity, ELISA assays were carried out as described above.
In general terms: In an ELISA, binding on a coated surface is turned into a signal by an enzyme label.

In test [1] the target is T1, EGFR and cMET co-expressed on the surface of tumour cell lines (HCC827, HT29, H441, H1975) (UniProt P00533 25-1210; P08581 25-1390).
T1 construct: whole, on cells; Target of the bispecific molecules on cells that carry both receptors; the cell line of each value stands under assay; also called EGFR and c-MET expressing cell line; EGFR and/or cMET expressing cell lines
As to the kind of experiment: confocal fluorescence microscopy, AlexaFluor647-labelled antibody pre-bound to cells, T=0.

In test [2] the target is T2, cynomolgus monkey cMET (recombinant, soluble monomeric) (cynomolgus monkey, UniProt A0M8R7 25-932 (Papio anubis entry)).
T2 construct: also called cyno cMET
As to the kind of experiment: SPR (BIAcore T200), antibody captured on anti-human IgG, soluble monomeric antigen as analyte, 25 C, 1:1 fit. On the procedure: (§1) Mouse anti-human IgG was immobilized on a CM4 sensor chip with a final surface density of ˜2000 resonance units (RUs). A reference flow cell surface was also prepared on this sensor chip using identical immobilization protocol. Test and control article antibodies were prepared at 5-20 nM in instrument buffer (HBS-EP buffer; 0.01M HEPES, pH 7.4, 0.15M NaCl, 3 mM EDTA, and 0.005% P-20), along with 3-fold serial dilutions of purified EGFR (0.27-200 nM human, 0.4-900 nM cyno, and 4-1000 nM murine) or cMET proteins (0.27-66 nM human and 0.27-22 nM cyno) in instrument buffer. A sequential approach was utilized for kinetic measurements. Antibodies were first injected over the capture surface, at a flow rate of 10 μL/minute. Once the binding of the captured antibody stabilized, a single concentration of the analyte was injected over both capture and reference surfaces, at a flow rate of 75 μL/minute. The resulting binding response curves yielded the association phase data. Following the injection of analyte, the flow was then switched back to instrument buffer for 15 minutes to permit the collection of dissociation phase data, followed by a 1-minute pulse of 10 mM glycine, pH 1.5, to regenerate the antibody-captured surface on the chip. Binding responses against test and control article antibodies were recorded from duplicate injections of each concentration of analyte. In addition, several buffer injections were interspersed throughout the injection series. Select buffer injections were used along with the reference cell responses to correct the raw data sets for injection artifacts and/or nonspecific binding interactions, commonly referred to as “double referencing”. Corrected binding data were globally fit to a 1:1 binding model (Biacore T200 Evaluation software 2.0, GE Healthcare, Pittsburgh, PA).
(§2) Kinetic measurements to soluble monomeric forms of EGFR and cMET were performed using a BIACore instrument.
On the technique in general: SPR reads the build-up and loss of mass on a sensor chip optically.

Test [3] has as its target T3, human EGFR (recombinant, soluble monomeric) (human, UniProt P00533 25-645).
T3 construct: also called EGFR antigen
The description is as above. On the procedure: as §1, §2

Test [4] deals with T4, cynomolgus monkey EGFR (recombinant, soluble monomeric) (cynomolgus monkey, UniProt P55245 25-645 (rhesus entry)).
T4 construct: also called cyno EGFR
Described as above. The procedure: as §1, §2

The target of a further test is T5, mouse EGFR (recombinant) (mouse, UniProt Q01279 25-647).
T5 construct: also called murine EGFR
The description is as above. The procedure: as §1, §2

Test [5] concerns the target T6, human cMET (recombinant, soluble monomeric) (human, UniProt P08581 25-932).
T6 construct: also called cMET antigen; His-tagged cMET antigen
The description is as above. The procedure: as §1, §2

T6 sequence (P08581 25-932): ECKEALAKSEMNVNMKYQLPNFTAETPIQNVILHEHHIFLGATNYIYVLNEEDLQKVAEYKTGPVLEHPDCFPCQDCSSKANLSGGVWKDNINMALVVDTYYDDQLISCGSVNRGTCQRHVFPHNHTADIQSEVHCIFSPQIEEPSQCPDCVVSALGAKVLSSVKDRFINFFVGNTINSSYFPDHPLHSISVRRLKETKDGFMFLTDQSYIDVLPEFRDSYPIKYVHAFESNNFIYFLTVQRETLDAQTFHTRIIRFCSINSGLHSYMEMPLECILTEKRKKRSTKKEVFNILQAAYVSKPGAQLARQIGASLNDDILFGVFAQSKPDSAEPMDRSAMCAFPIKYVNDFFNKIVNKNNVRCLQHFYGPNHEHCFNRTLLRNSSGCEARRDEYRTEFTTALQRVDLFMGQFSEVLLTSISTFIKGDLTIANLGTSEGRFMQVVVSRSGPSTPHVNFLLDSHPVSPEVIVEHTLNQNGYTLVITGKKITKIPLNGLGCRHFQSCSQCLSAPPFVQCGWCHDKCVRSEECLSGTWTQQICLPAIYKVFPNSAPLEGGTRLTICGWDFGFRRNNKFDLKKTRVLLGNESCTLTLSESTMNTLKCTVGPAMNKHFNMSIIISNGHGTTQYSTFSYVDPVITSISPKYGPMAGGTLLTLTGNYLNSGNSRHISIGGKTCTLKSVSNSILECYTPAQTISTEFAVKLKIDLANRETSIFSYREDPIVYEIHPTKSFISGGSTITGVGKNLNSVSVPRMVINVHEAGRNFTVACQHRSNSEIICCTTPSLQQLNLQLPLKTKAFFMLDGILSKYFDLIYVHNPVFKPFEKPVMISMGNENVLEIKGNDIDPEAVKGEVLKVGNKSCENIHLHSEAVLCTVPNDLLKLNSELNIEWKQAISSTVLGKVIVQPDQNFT
T2 sequence (A0M8R7 25-932 S170N/I621T): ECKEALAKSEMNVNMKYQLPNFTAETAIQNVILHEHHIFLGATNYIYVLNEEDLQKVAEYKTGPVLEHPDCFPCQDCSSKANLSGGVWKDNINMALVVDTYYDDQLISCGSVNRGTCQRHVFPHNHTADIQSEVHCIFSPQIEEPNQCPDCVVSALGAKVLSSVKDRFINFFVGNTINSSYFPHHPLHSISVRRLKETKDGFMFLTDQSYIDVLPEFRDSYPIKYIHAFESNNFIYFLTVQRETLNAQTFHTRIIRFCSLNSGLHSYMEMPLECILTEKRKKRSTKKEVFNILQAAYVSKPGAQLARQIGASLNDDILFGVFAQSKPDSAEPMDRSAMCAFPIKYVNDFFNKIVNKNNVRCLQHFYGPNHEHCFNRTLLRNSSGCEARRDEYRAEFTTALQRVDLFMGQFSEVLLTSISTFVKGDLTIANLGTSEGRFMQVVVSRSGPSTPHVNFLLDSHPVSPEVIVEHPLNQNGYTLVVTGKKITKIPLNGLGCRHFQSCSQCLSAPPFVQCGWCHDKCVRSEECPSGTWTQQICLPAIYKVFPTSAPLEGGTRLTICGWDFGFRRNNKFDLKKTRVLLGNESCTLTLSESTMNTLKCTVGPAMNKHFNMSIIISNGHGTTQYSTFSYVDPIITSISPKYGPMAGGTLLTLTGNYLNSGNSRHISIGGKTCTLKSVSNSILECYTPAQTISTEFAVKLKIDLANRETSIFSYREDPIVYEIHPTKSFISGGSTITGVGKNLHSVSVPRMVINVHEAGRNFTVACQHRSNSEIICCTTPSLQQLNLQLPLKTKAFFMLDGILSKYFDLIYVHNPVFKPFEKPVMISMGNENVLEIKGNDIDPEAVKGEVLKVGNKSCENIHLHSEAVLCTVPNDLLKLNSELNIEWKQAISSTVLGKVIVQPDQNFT
Chain of mouse cMET (recombinant) (P16056 25-929 limits assumed): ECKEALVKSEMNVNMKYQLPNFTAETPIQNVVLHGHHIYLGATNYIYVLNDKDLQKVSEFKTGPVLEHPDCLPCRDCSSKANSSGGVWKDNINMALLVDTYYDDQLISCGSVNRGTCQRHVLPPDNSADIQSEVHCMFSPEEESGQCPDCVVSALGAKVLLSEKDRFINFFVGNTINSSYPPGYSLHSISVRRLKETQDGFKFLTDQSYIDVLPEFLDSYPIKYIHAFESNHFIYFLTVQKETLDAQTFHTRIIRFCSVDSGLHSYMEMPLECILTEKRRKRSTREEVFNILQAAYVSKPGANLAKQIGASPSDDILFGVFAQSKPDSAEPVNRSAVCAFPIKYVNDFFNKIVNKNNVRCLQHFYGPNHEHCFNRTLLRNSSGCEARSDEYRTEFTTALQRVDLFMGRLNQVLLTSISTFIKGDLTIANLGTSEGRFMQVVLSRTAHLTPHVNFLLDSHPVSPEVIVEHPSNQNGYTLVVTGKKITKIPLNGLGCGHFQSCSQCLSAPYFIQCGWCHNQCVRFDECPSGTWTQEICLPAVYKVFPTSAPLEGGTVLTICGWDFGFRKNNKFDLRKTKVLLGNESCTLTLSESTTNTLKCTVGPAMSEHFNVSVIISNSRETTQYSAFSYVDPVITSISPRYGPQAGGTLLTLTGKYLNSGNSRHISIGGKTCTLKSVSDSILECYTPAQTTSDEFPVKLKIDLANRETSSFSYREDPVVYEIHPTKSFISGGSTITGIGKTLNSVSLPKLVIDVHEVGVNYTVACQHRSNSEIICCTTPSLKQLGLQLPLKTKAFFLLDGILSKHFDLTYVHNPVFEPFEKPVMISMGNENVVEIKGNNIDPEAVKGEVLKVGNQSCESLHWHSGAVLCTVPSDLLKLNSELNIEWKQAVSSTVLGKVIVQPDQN

B1: RAA22/B09-57 DuetMab (bispecific antibody, V domains shown)
VH 1: QVQLVQSGAEVKKPGSSVKVSCKASGGTFSDNDFSWVRQAPGQGLEWMGAIVAVFRTETYAQKFQDRVKITADISTRTTYMELSSLRSEDTAVYYCARRLMSAISGPGAPLLMWGQGTLVTVSS
VL 1: QSALTQPRSVSGSPGQSVTISCTGTSSDVGGYNYVSWYQQHPGKAPKLMIYDVSKRPSGVPDRFSGSKSGNTASLTISGLQAEDEADYYCSSYTSSDTLEIFGGGTKLTVL
VH 2: QVQLVQSGAEVKKPGASVKVSCKASGYTFTDYYIHWVRQATGQGLEWMGWMNPNSGNTGYAQKFQGRVTMTRDTSISTAYMELSSLRSEDTAVYYCARGQGYTHSWGQGTMVTVSS
VL 2: DIQMTQSPSTLSASVGDRVTITCRASEGIYHWLAWYQQKPGKAPKLLIYKASSLASGVPSRFSGSGSGTEFTLTISSLQPDDFATYYCQQYSNYPPTFGGGTKLEIK
notes: RAA22 VH on Hole heavy chain (T366S, L368A, Y407V, Y349C) with lambda CL; cysteine insertion after S239; also called RAA22/B09 DuetMab; RAA22/B09 bispecific mAb
In general, Kd refers to the free concentration of one partner at which half of the binding sites on the other are occupied at equilibrium, for simple one-to-one binding. The koff is the rate constant with which the complex falls apart. The term kon denotes the rate constant with which the complex forms. Take B1: the binding result in the test with mouse cMET (recombinant) is “no binding (tested: 10 µg/mL)”. For the same molecule, the “fold binding on HCC827 cells over H1975 cells” value in test [1] came out at 8.9 fold. Moreover, the Kd in test [2] was determined as 2.2 nM; in test [3], 45 nM; in test [4], 197 nM; with mouse EGFR (recombinant) it was 575 nM; in test [5] it was 2.2 nM. In addition, the koff in test [2] came out at 0.00212 s⁻¹; in test [3], 0.00201 s⁻¹; in test [4], 0.00548 s⁻¹; with mouse EGFR (recombinant), 0.0206 s⁻¹; in test [5] it was 0.000986 s⁻¹. In addition, the kon came out at 974000 M⁻¹ s⁻¹ in test [2]; 44700 M⁻¹ s⁻¹ in test [3]; 27800 M⁻¹ s⁻¹ in test [4]; 35400 M⁻¹ s⁻¹ with mouse EGFR (recombinant); 443000 M⁻¹ s⁻¹ in test [5].
